Assay results: patent US20230322924A1 (Janssen / Centocor, published 2023)
Positions count from the first letter of the chain named. Numbers in names are those of the source.

B1: C33B72 (antibody, IgG1, V domains shown)
VH: QVQLVESGGGVVQPGRSLRLSCAASGFTFSSYGMHWVRQAPGKGLEWVVVISYDGSNKYYADSVKGRFTISRDNSKNTLYLQMNSLRAEDTAVYYCAKDFRDFDWLPPDSTSYHGMDVWGQGTTVTVSS
VL: SYELTQPPSVSVSPGQTASITCSGDKLGDKYACWYQQKPGQSPVVVIYQDRKRPSGIPERFSGSNFGNTATLTISGTQAMDEADYYCQAWDSSTVVFGGGTKLTVL
notes: huIgG1 F405L; also called C33F77; C33H65/C33L47
B2: C33B63 (antibody, IgG1, V domains shown)
VH: QLQLQESGPGLVKPSETLSLTCTVSGGSISTGRYYWGWIRQPPGKGVIWIGNIYYSGNTYYNPSLKSRVTISVDTSKNQFSLKLNSVTAADTAVYYCARLGSLVVVPAAMSFDYWGQGTLVTVSS
VL: B1 VL with Q37L, K38R, V44I, V45L, R51S, K52N, F66S, V95W
notes: huIgG1 F405L; also called C33F68; C33H51/C33L34
B3: C33B52 (antibody, IgG1, V domains shown)
VH: QLQLQESGPGLVNPSETLSHTCTVSGGSISSSSHYWGWIRQPPGKGLEWIGKIYYSGNTYYNPSLKSRVTISIDTSKNQFSLKMSSVTAADTAVYYCARLADVVVVPAARYFDSWGQGTLVTVSS
VL: B1 VL with T21I, D29N, V45L, R51S, F66S, M80V, V95Y, G99T, L103V
notes: huIgG1 F405L; also called C33F57; C33H42/C33L8
B4: C33B79 (antibody, IgG1, V domains shown)
VH: B1 VH with G26R, V49A, Y94H, D102S, T111A
VL: B1 VL with S13P, V45L, R51N, F66S, D91G, S92R, S93N
notes: huIgG1 F405L; also called C33F84; C33H74/C33L38
B5: C33B73 (antibody, IgG1, V domains shown)
VH: B1 VH with A23V, V49A, D90G, D102S, T111A
VL: B1 VL with V45L, R51G, T69K, S92R, S93N
notes: huIgG1 F405L; also called C33F78; C33H66/C33L60
B6: C33B82 (antibody, IgG1, V domains shown)
VH: B1 VH with V49A, Y80F, D102Y, T111S, H114Y
VL: B1 VL with K26E, D29N, I47V
notes: huIgG1 F405L; also called C33F87; C33H78/C33L57
B7: C33B125 (antibody, IgG1, V domains shown)
VH: B1 VH with V49A, D102S, H114Y
VL: B1 VL with A32V, Y48H
notes: huIgG1 F405L; also called C33F130; C33H84/C33L66
B8: C33B83 (antibody, V domains shown)
VH: B1 VH with S31A, V49A, D90G, D102S, T111A
VL: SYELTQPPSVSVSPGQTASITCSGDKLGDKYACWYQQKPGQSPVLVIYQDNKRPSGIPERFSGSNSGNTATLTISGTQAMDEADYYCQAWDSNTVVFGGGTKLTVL
notes: huIgG1 F405L; also called C33F88; C33H81/C33L53
B9: C33B55 (antibody, IgG1, V domains shown)
VH: B1 VH with A40S, V49A, Y60C, N77S, D102S, F103L, H114D
VL: B1 VL with D25H, Q49K, R51S
notes: huIgG1 F405L; also called C33F60; C33H45/C33L11

target: Human CD33 ECD-HSA (human); assay: SPRi off-rate screen (IBIS MX96), mAb captured by anti-human Fc; column head prints KD
Protocol: (§1) To begin assessing the biophysical binding properties of the purified mAbs an off-rate screen was performed. 76 OMNIRat anti-CD33 mAbs were tested for binding to recombinant human CD33 ECD-HSA (C33W2) and cyno CD33 ECD-HSA (C33W1) proteins (Janssen production) and the off-rate was measured by IBIS MX96 SPRi array platform (Carterra; Newton, PA). […] The sensor chip was transferred to the Continuous Flow Microspotter (CFM) unit to capture each anti-CD33 mAb at 10 μg/ml for 10 minutes. Binding was measured on IBIS SPRi by single cycle kinetics without regeneration. […] The raw binding data (.trix file format) were referenced and aligned using SprintX software (Wasatch, Ver 1.9.3.2), then exported (.ibmx file format) to Scrubber software (Ver. 2.0) for 1:1 binding kinetic analyses (Wasatch, version 2.0.0.33) to extract the koff results.

Chain of Human CD33 ECD-HSA (human) (chain, as listed by the source): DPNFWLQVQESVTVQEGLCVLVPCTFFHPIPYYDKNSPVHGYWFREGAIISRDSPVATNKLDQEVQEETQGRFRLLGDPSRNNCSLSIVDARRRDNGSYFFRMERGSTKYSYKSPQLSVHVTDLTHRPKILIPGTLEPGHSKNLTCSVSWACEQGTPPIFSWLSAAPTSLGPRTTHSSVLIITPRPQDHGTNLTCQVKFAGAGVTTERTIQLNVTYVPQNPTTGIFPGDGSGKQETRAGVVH

| koff | Binder |
| --- | --- |
| 0.000284 s⁻¹ | B1 |
| 0.00457 s⁻¹ | B2 |
| 0.00313 s⁻¹ | B3 |
| 0.000328 s⁻¹ | B4 |
| 9.12e-05 s⁻¹ | B5 |
| 0.000341 s⁻¹ | B6 |
| 0.000154 s⁻¹ | B7 |
| 0.000461 s⁻¹ | B8 |
| 0.000215 s⁻¹ | B9 |

target: T1, Cyno CD33 ECD-HSA (cynomolgus monkey); assay: SPRi off-rate screen (IBIS MX96), mAb captured by anti-human Fc; column head prints Cyno CD33 binding KD
T1 construct: Cyno CD33 extracellular domain fused to monomeric human serum albumin and a six-histidine tag; also called C33W1
Protocol: as §1

| koff | Binder |
| --- | --- |
| 0.000763 s⁻¹ | B1 |
| 0.000947 s⁻¹ | B2 |
| 0.0012 s⁻¹ | B3 |
| 0.00682 s⁻¹ | B4 |
| 0.000408 s⁻¹ | B5 |
| 0.00067 s⁻¹ | B6 |
| 0.000351 s⁻¹ | B7 |
| 0.00217 s⁻¹ | B8 |
| 0.000116 s⁻¹ | B9 |

target: Human CD33 ECD-HSA (human); assay: ProteOn SPR, mAb captured by anti-human Fc, 1:1 Langmuir fit
Protocol: (§2) The panel of mAbs was then further characterized for full affinity analysis as well as epitope binning. The binding of anti-CD33 mAbs to recombinant human CD33 ECD-HSA (C33W2) and cyno CD33 ECD-HSA (C33W1) was measured by ProteOn SPR (Bio-Rad). […] Different mAbs were captured on the anti-human Fc IgG surface at 0.25 or 0.5 μg/ml (160-300 RU) in vertical ligand orientation, with the 6th ligand channel as no ligand surface control. Human and cyno CD33-HSA proteins at 0.3 μM concentration in 3-fold dilution series of 5 concentrations flew in as analyte to bind to captured mAbs in the horizontal orientation. A buffer sample was also injected in the 6th channel to monitor the dissociation of captured mAb and baseline stability. […] The raw biding data were processed by double referencing after subtracting the response data from: 1) the inter-spot to correct for the non-specific interactions between the Ag and the empty chip surface; 2) the buffer channel to correct for baseline drifting due to the dissociation of captured mAb surface over time. The processed data at all antigen concentrations for each mAb were globally fit to a 1:1 simple Langmuir binding model to extract estimates of the kinetic (kₒₙ, koff) and affinity (Kd) constants.

| Kd | koff | kon | Binder |
| --- | --- | --- | --- |
| 230 pM | 0.0002 s⁻¹ | 871000 M⁻¹ s⁻¹ | B1 |
| 7010 pM | 0.00374 s⁻¹ | 533000 M⁻¹ s⁻¹ | B2 |
| 19200 pM | 0.00396 s⁻¹ | 206000 M⁻¹ s⁻¹ | B3 |
| 760 pM | 0.00039 s⁻¹ | 515000 M⁻¹ s⁻¹ | B4 |
| 100 pM | 5.59e-05 s⁻¹ | 559000 M⁻¹ s⁻¹ | B5 |
| 610 pM | 0.00027 s⁻¹ | 445000 M⁻¹ s⁻¹ | B6 |
| 140 pM | 0.000134 s⁻¹ | 992000 M⁻¹ s⁻¹ | B7 |
| 1930 pM | 0.000521 s⁻¹ | 270000 M⁻¹ s⁻¹ | B8 |
| 260 pM | 0.000253 s⁻¹ | 985000 M⁻¹ s⁻¹ | B9 |

target: T1, Cyno CD33 ECD-HSA; assay: as above
Protocol: as §2

| Kd | koff | kon | Binder |
| --- | --- | --- | --- |
| 587 pM | 0.00054 s⁻¹ | 919000 M⁻¹ s⁻¹ | B1 |
| 1220 pM | 0.00088 s⁻¹ | 723000 M⁻¹ s⁻¹ | B2 |
| 4740 pM | 0.00148 s⁻¹ | 313000 M⁻¹ s⁻¹ | B3 |
| 4010 pM | 0.0022 s⁻¹ | 548000 M⁻¹ s⁻¹ | B4 |
| 846 pM | 0.000508 s⁻¹ | 600000 M⁻¹ s⁻¹ | B5 |
| 1380 pM | 0.000751 s⁻¹ | 545000 M⁻¹ s⁻¹ | B6 |
| 304 pM | 0.000339 s⁻¹ | 1.12e+06 M⁻¹ s⁻¹ | B7 |
| 11700 pM | 0.00288 s⁻¹ | 247000 M⁻¹ s⁻¹ | B8 |
| 72.3 pM | 8.37e-05 s⁻¹ | 1.16e+06 M⁻¹ s⁻¹ | B9 |

target: T2, Human CD33 full length, expressed on HEK293F cells (human, UniProt P20138 18-364); assay: flow cytometry, HEK293F cells expressing human CD33
T2 construct: HEK293F cells transduced with lentivirus containing full length human CD33; also called huCD33
Protocol: (§3) OMNIRat antibodies identified via immunization, v-region cloned and subsequently expressed and purified were characterized further for binding to CD33 expressing cells and binding to recombinant antigens. The purified antibodies were assessed for binding to stably transfected HEK293F cells expressing human CD33 or cyno CD33 (generation described above) along with the parental HEK293F as negative control. Cells were harvested from tissue culture flasks using non-enzymatic dissociation buffer (Thermo Scientific). The flasks were rinsed twice with PBS and dissociation buffer was added to the flask, and the flask was incubated for 10 minutes at 37° C. until the cells became non-adherent. The cells were centrifuged at 300 g for 5 minutes and resuspended at 1.0×10⁶ cells/ml in staining buffer (Becton Dickinson; Franklin Lakes, NJ). 50,000 cells/well of each cell type was plated in 50 μl of staining buffer in round bottom plates (Becton Dickinson). […] 100 μl staining buffer was added to all wells of each plate, the plates were spun at 300 g for 5 min, the buffer was removed, 200 μl staining buffer was added to all wells of each plate, the plates were spun at 300 g for 5 min, and the buffer was removed. 50 μl of 2 μg/ml of Goat-anti-human Fc AF647 secondary antibody (Jackson Immunoresearch; West Grove, PA) was added to all wells of the plates, and the plates were incubated for 30 min at 4° C. 100 μl staining buffer was added to all wells of the plates, the plates were spun at 300 g for 5 min, and the buffer was removed. 200 μl running buffer (running buffer is Staining buffer, 1 mM EDTA, 0.1% Pluronic Acid) was added to all wells of the plates, the plates were spun at 300 g for 5 min, and the buffer was removed. 30 μl running buffer containing Sytox Green live/dead dye (ThermoFisher) was added to all wells with cells and the plates were read on an iQue IntelliCyt flow cytometer. Cells were gated on forward vs. side scatter to eliminate debris, then on singlets and then on live cells which excluded the Sytox stain. Antibody binding was assessed by the mean fluorescence intensity in the AF647 channel.

T2 sequence (P20138 18-364 limits assumed): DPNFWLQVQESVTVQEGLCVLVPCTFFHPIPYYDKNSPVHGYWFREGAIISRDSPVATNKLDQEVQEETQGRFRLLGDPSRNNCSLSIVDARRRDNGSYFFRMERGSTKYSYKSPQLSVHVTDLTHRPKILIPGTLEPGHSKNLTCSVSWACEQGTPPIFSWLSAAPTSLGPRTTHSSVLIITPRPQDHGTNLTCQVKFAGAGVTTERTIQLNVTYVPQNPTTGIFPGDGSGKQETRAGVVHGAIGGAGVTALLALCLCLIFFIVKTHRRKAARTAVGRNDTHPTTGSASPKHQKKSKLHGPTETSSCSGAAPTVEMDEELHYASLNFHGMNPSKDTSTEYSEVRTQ

| MFI at 0 nM mAb (background) | MFI at 0.6 nM mAb | MFI at 6 nM mAb | MFI at 60 nM mAb | Binder |
| --- | --- | --- | --- | --- |
| 93.3 MFI | 12500 MFI | 105000 MFI | 328000 MFI | B1 |
| 86.3 MFI | 9670 MFI | 62200 MFI | 248000 MFI | B2 |
| 82.5 MFI | 6750 MFI | 46300 MFI | 197000 MFI | B3 |
| 77.8 MFI | 4990 MFI | 41900 MFI | 237000 MFI | B4 |
| 94 MFI | 4030 MFI | 33400 MFI | 201000 MFI | B5 |
| 73.4 MFI | 5030 MFI | 41300 MFI | 189000 MFI | B6 |
| 78.3 MFI | 9200 MFI | 79700 MFI | 259000 MFI | B7 |
| 87.4 MFI | 1020 MFI | 7860 MFI | 93000 MFI | B8 |
| 105 MFI | 7630 MFI | 59200 MFI | 188000 MFI | B9 |

target: T3, Cyno CD33 full length, expressed on HEK293F cells (cynomolgus monkey); assay: flow cytometry, HEK293F cells expressing cyno CD33
T3 construct: HEK293F cells transduced with lentivirus containing full length cyno CD33 (Genbank XP_005590138.1); also called cyCD33
Protocol: as §3

| MFI at 0 nM mAb (background) | MFI at 0.6 nM mAb | MFI at 6 nM mAb | MFI at 60 nM mAb | Binder |
| --- | --- | --- | --- | --- |
| 90.8 MFI | 3890 MFI | 14000 MFI | 19400 MFI | B1 |
| 87.9 MFI | 2880 MFI | 11600 MFI | 18300 MFI | B2 |
| 75.2 MFI | 2060 MFI | 8440 MFI | 12600 MFI | B3 |
| 63.6 MFI | 1080 MFI | 6430 MFI | 15500 MFI | B4 |
| 72.5 MFI | 796 MFI | 6990 MFI | 14800 MFI | B5 |
| 84.2 MFI | 1540 MFI | 6620 MFI | 14300 MFI | B6 |
| 70.2 MFI | 3460 MFI | 11500 MFI | 15600 MFI | B7 |
| 87.3 MFI | 159 MFI | 687 MFI | 5300 MFI | B8 |
| 69.4 MFI | 2430 MFI | 9990 MFI | 16000 MFI | B9 |
